{"source": "paper PMC7855945", "about": "(Cellular microbiology, 2020)", "proteins": {"B1": {"name": "recombinant A. fumigatus Hsp90 (rAfHsp90), full length, 6×His-tagged (natural protein)", "chain": "not shown"}}, "biological_target": "the molecule itself", "test": "SEC", "data": [{"protein": "B1", "values": [{"measurement": "stoichiometry N", "result": 2}]}]}
